Data as given in US20120172295A1 (INDIANA UNIVERSITY RESEARCH AND TECHNOLOGY, published 2012).
Read-outs that look alike come from different tables or passages of the source. Starred links: 1 amine or outer side, 2 acyl side, 3 side chain; linkers in the order of their positions; H or OH if unused. Positions of bridges follow the written chain, without caps; N, C: chain ends. Non-standard residues stand in square brackets, D forms with d. No end group written: not given here. *: point of attachment. Dab(Ac) = acetyldiaminobutanoic acid, CC(=O)NCC[C@H](N[*:1])C(=O)[*:2]; C(Acm) = acetamidomethyl-cysteine, CC(=O)NCSC[C@H](N[*:1])C(=O)[*:2]; Isobutyryl(2-imidazol-4-yl) = CC(C)(C(=O)*)c1c[nH]cn1; Dap(CONH2) = NC(=O)NC[C@H](N)C(=O)O; Stearoyl = CCCCCCCCCCCCCCCCCC(=O)*; Palmitoyl = CCCCCCCCCCCCCCCC(=O)*; Met(O) = CS(=O)CC[C@H](N)C(=O)O; Myristoyl = CCCCCCCCCCCCCC(=O)*; Nle = CCCC[C@H](N)C(=O)O; DMIA = not defined here; PEG = not defined here; Aib = CC(C)(N)C(=O)O

Legend:
Test in all cases: cell-based or functional assay
[1] = molecular target: T1, glucagon receptor (UniProt P47871 26-477, limits assumed)
[2] = molecular target: T2, GLP-1 receptor (UniProt P43220 24-463, limits assumed)
[3] = molecular target: T1, glucagon receptor; remark: listed apart in the source
[4] = molecular target: T2, GLP-1 receptor; remark: listed apart in the source
[5] = molecular target: T1, glucagon receptor; remark: listed apart in the source

T1 sequence (P47871 26-477 limits assumed): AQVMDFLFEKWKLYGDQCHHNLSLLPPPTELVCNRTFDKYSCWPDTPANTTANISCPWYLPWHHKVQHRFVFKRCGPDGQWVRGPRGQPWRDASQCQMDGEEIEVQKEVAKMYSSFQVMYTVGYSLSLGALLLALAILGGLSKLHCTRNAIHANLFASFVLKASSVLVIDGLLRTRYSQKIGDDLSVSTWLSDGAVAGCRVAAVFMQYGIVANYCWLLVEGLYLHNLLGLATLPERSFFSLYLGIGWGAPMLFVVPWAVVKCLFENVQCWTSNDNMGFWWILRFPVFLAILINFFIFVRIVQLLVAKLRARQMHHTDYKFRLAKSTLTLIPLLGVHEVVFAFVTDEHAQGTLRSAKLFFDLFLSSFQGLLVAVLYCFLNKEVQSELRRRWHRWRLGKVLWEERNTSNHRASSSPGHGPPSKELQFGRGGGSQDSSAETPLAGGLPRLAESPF

Binder	% Activity of Glucagon [1]	% Activity of GLP-1 [2]	EC50 [2]	% Potency Relative to Native [3]	% Potency Relative to Native [4]	also measured
HXQGTFTSDKSKYLDERRAKDFVQWLMNT (d-Ser at 2; Lys 10-C18 acyl; C-terminal amide) [dS2, E16/K20, K10(C18) Gluc Amide]	196%	60%	0.025 nM			
HXQGTFTSDKSKYLDERRAKDFVQWLMNT (d-Ser at 2; Lys 10-C16 acyl; C-terminal amide) [dS2, E16/K20, K10(C16) Gluc Amide]	44.7%	19.5%	0.041 nM			EC50 [1]: 0.076 nM
[DMIA]SQGTFTSDYSKYLDERRAKDFVCWLMNGGPSSGAPPPS-NH2 (lactam 16-20; reading uncertain) [E16, K20 DMIA1, Gly29,30 Cys24 Cex Lactam (SEQ ID NO: 513), parent w/o PEG]				116%	78.3%	
[Isobutyryl(2-imidazol-4-yl)]SQGTFTSDYSKYLDEQAAKEFIC(PEG)WLMNT-NH2 (reading uncertain) [Chimera DMIA1, Cys24 (SEQ ID NO: 519), parent w/PEG]				6.9%	19.3%	
H[Aib]QGTFTSDYSKYLDERRAKDFVCWLMNT-NH2 (lactam 16-20; N-terminus assumed; SMILES CSCC[C@H](NC(=O)[C@H](CC(C)C)NC(=O)[C@H](Cc1c[nH]c2ccccc12)NC(=O)[C@H](CS)NC(=O)[C@@H](NC(=O)[C@H](Cc1ccccc1)NC(=O)[C@H](CC(=O)O)NC(=O)[C@@H]1CCCCNC(=O)CC[C@H](NC(=O)[C@H](CC(=O)O)NC(=O)[C@H](CC(C)C)NC(=O)[C@H](Cc2ccc(O)cc2)NC(=O)[C@H](CCCCN)NC(=O)[C@H](CO)NC(=O)[C@H](Cc2ccc(O)cc2)NC(=O)[C@H](CC(=O)O)NC(=O)[C@H](CO)NC(=O)[C@@H](NC(=O)[C@H](Cc2ccccc2)NC(=O)[C@@H](NC(=O)CNC(=O)[C@H](CCC(N)=O)NC(=O)C(C)(C)NC(=O)[C@@H](N)Cc2c[nH]cn2)[C@@H](C)O)[C@@H](C)O)C(=O)N[C@@H](CCCNC(=N)N)C(=O)N[C@@H](CCCNC(=N)N)C(=O)N[C@@H](C)C(=O)N1)C(C)C)C(=O)N[C@@H](CC(N)=O)C(=O)N[C@H](C(N)=O)[C@@H](C)O) [E16, K20 AIB2, Cys24 Lactam (SEQ ID NO: 517), parent w/o PEG]				108%	96.9%	
[Isobutyryl(2-imidazol-4-yl)]SQGTFTSDYSKYLDEQAAKEFICWLMNT-NH2 (SMILES CC[C@H](C)[C@H](NC(=O)[C@H](Cc1ccccc1)NC(=O)[C@H](CCC(=O)O)NC(=O)[C@H](CCCCN)NC(=O)[C@H](C)NC(=O)[C@H](C)NC(=O)[C@H](CCC(N)=O)NC(=O)[C@H](CCC(=O)O)NC(=O)[C@H](CC(=O)O)NC(=O)[C@H](CC(C)C)NC(=O)[C@H](Cc1ccc(O)cc1)NC(=O)[C@H](CCCCN)NC(=O)[C@H](CO)NC(=O)[C@H](Cc1ccc(O)cc1)NC(=O)[C@H](CC(=O)O)NC(=O)[C@H](CO)NC(=O)[C@@H](NC(=O)[C@H](Cc1ccccc1)NC(=O)[C@@H](NC(=O)CNC(=O)[C@H](CCC(N)=O)NC(=O)[C@H](CO)NC(=O)C(C)(C)c1c[nH]cn1)[C@@H](C)O)[C@@H](C)O)C(=O)N[C@@H](CS)C(=O)N[C@@H](Cc1c[nH]c2ccccc12)C(=O)N[C@@H](CC(C)C)C(=O)N[C@@H](CCSC)C(=O)N[C@@H](CC(N)=O)C(=O)N[C@H](C(N)=O)[C@@H](C)O) [Chimera DMIA1, Cys24 (SEQ ID NO: 519), parent w/o PEG]				28.9%	64.5%	
HS[C(Acm)]GTFTSDYSKYLDTRRAAEFVAWL[Nle]DE [Peptide J backbone, C(Acm) at position 3 (SEQ ID NO: 594)]						% activity [5]: 33%; EC50 [5]: 0.18 nM
HXQGTFTSDKSKYLDERRAKDFVQWLMNT (d-Ser at 2; Lys 10-C14 acyl; C-terminal amide) [dS2, E16/K20, K10(C14) Gluc Amide]	21.9%	6.3%	0.128 nM			EC50 [1]: 0.155 nM
XSQGTFTSDKSKYLDERRAKDFVQWLMNT (DMIA at 1; Lys 10-C18 acyl; [E16/K20]; C-terminal amide) [DMIA1, K10(C18), [E16/K20]-Gluc Amide]	42.3%	136%	0.011 nM			
[DMIA]SQGTFTSDK(Myristoyl)SKYLDERRAKDFVQWLMNT-NH2 (reading uncertain) [DMIA1, K10(C14), [E16/K20]-Gluc Amide]	204%	30%	0.05 nM			
HSQGTFTSDYSKYLDTRRAAEFVAWL[Nle]DE [Peptide J backbone, Q at position 3 (SEQ ID NO: 593)]						% activity [5]: 25%
HS[Met(O)]GTFTSDYSKYLDTRRAAEFVAWL[Nle]DE [Peptide J backbone, M(O) at position 3 (SEQ ID NO: 598)]						% activity [5]: 7%; EC50 [5]: 0.91 nM
HS[Dap(CONH2)]GTFTSDYSKYLDTRRAAEFVAWL[Nle]DE [Peptide J backbone, Dap(urea) at position 3 (SEQ ID NO: 596)]						% activity [5]: 13%; EC50 [5]: 0.48 nM
HSQGTFTSDYSKYLDEQAAKEFIC(PEG)WLMNT-NH2 (reading uncertain) [Chimera Cys24 (SEQ ID NO: 518), parent w/PEG]				19.8%	29.3%	
[Isobutyryl(2-imidazol-4-yl)]SQGTFTSDYSKYLDEQAAKEFIAWLMNC(PEG)-NH2 (reading uncertain) [Chimera DMIA1, Cys29 (SEQ ID NO: 520), parent w/PEG]				5.3%	27.3%	
H[Aib]QGTFTSDK(Stearoyl)SKYLD[Aib]RRAQDFVQWLMNT-NH2 (N-terminus assumed; SMILES CCCCCCCCCCCCCCCCCC(=O)NCCCC[C@H](NC(=O)[C@H](CC(=O)O)NC(=O)[C@H](CO)NC(=O)[C@@H](NC(=O)[C@H](Cc1ccccc1)NC(=O)[C@@H](NC(=O)CNC(=O)[C@H](CCC(N)=O)NC(=O)C(C)(C)NC(=O)[C@@H](N)Cc1c[nH]cn1)[C@@H](C)O)[C@@H](C)O)C(=O)N[C@@H](CO)C(=O)N[C@@H](CCCCN)C(=O)N[C@@H](Cc1ccc(O)cc1)C(=O)N[C@@H](CC(C)C)C(=O)N[C@@H](CC(=O)O)C(=O)NC(C)(C)C(=O)N[C@@H](CCCNC(=N)N)C(=O)N[C@@H](CCCNC(=N)N)C(=O)N[C@@H](C)C(=O)N[C@@H](CCC(N)=O)C(=O)N[C@@H](CC(=O)O)C(=O)N[C@@H](Cc1ccccc1)C(=O)N[C@H](C(=O)N[C@@H](CCC(N)=O)C(=O)N[C@@H](Cc1c[nH]c2ccccc12)C(=O)N[C@@H](CC(C)C)C(=O)N[C@@H](CCSC)C(=O)N[C@@H](CC(N)=O)C(=O)N[C@H](C(N)=O)[C@@H](C)O)C(C)C) [AIB2, AIB16, K10(C18) Gluc Amide]	212%	88.9%	0.009 nM			EC50 [1]: 0.016 nM
H[Aib]QGTFTSDYSKYLDERRAKDFVC(PEG)WLMNT-NH2 (lactam 16-20; reading uncertain) [E16, K20 AIB2, Cys24 Lactam (SEQ ID NO: 517), parent w/PEG]				15.8%	31%	
XSQGTFTSDKSKYLDERRAKDFVQWLMNT (DMIA at 1; Lys 10-C16 acyl; [E16/K20]; C-terminal amide) [DMIA1, K10(C16), [E16/K20]-Gluc Amide]	392%	100%				
H[Aib]QGTFTSDK(Myristoyl)SKYLD[Aib]RRAQDFVQWLMNT-NH2 (N-terminus assumed; SMILES CCCCCCCCCCCCCC(=O)NCCCC[C@H](NC(=O)[C@H](CC(=O)O)NC(=O)[C@H](CO)NC(=O)[C@@H](NC(=O)[C@H](Cc1ccccc1)NC(=O)[C@@H](NC(=O)CNC(=O)[C@H](CCC(N)=O)NC(=O)C(C)(C)NC(=O)[C@@H](N)Cc1c[nH]cn1)[C@@H](C)O)[C@@H](C)O)C(=O)N[C@@H](CO)C(=O)N[C@@H](CCCCN)C(=O)N[C@@H](Cc1ccc(O)cc1)C(=O)N[C@@H](CC(C)C)C(=O)N[C@@H](CC(=O)O)C(=O)NC(C)(C)C(=O)N[C@@H](CCCNC(=N)N)C(=O)N[C@@H](CCCNC(=N)N)C(=O)N[C@@H](C)C(=O)N[C@@H](CCC(N)=O)C(=O)N[C@@H](CC(=O)O)C(=O)N[C@@H](Cc1ccccc1)C(=O)N[C@H](C(=O)N[C@@H](CCC(N)=O)C(=O)N[C@@H](Cc1c[nH]c2ccccc12)C(=O)N[C@@H](CC(C)C)C(=O)N[C@@H](CCSC)C(=O)N[C@@H](CC(N)=O)C(=O)N[C@H](C(N)=O)[C@@H](C)O)C(C)C) [AIB2, AIB16, K10(C14) Gluc Amide]	77.3%	33.3%	0.024 nM			EC50 [1]: 0.044 nM
[Isobutyryl(2-imidazol-4-yl)]SQGTFTSDYSKYLDERRAKDFVC(PEG)WLMNGGPSSGAPPPS-NH2 (lactam 16-20; reading uncertain; also: PEG size not given here) [E16, K20 DMIA1, Gly29,30 Cys24 Cex Lactam (SEQ ID NO: 513), parent w/PEG]				12.6%	11.3%	
HS[Dab(Ac)]GTFTSDYSKYLDTRRAAEFVAWL[Nle]DE [Peptide J backbone, Dab(Ac) at position 3 (SEQ ID NO: 595)]						% activity [5]: 19%; EC50 [5]: 0.31 nM
H[Aib]QGTFTSDK(Palmitoyl)SKYLD[Aib]RRAQDFVQWLMNT-NH2 [AIB2, AIB16, K10(C16) Gluc Amide (SEQ ID NO: 611)]	170%	72.3%				EC50 [1]: 0.02 nM
